Test [1] concerns the target T1, VAPA 1-242 expressed from pEGFP-N1-VAPA; 1-242 (Addgene #18874) in HEK293 cells (UniProt Q9Z270 1-242).
T1 construct: range 1-242; Used as a whole lysate of transfected HEK293 cells (1 mg/ml total protein), detected with anti-VAPA antibody; also called VAMP-associated protein A; VAPA proteins; not shown: EGFP implied by the vector name pEGFP-N1
T1 sequence (looked up): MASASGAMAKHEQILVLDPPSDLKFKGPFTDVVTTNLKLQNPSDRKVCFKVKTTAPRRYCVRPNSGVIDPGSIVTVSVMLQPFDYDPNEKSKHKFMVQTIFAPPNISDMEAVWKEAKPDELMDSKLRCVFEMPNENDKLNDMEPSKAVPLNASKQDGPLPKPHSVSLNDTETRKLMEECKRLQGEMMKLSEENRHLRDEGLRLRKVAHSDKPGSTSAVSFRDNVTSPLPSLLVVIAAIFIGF
In words: peptide spot array (far western) with lysate of HEK293 cells expressing VAPA 1-242, anti-VAPA detection. As for the experimental part:
Standard 9-fluorenylmethoxy carbonyl chemistry was used to synthesize peptides and spot them onto Celluspots nitrocellulose disks prederivatized with a polyethylene glycerol spacer (Intavis), using the Respep peptide synthesizer. The peptides were spotted on 20 membranes fitted on microscope glass slides (Intavis) using an Intavis MultiPep robot. For hybridization and immunoblotting of arrays, Celluspots slides were washed in TBST (50 mM Tris-HCl, pH 7.4, 150 mM NaCl, 0.1% Tween 20) for 10 minutes, […] blocked for 1 hour at room temperature (RT) with gentle shaking in TBST containing 5% nonfat dry milk. Lysates from HEK293 cells transfected as before (Yeh et al., J Neurosci. 37: 5648-5658, 2017; Yeh et al., Proc Natl Acad Sci USA. 116: 15696-15607, 2019; Dustrude et al., Proc Natl Acad Sci USA. 113: E8443-E8452, 2016) with pEGFP-N1-VAPA; 1-242 (Addgene #18874) were made in 20 mM Tris, 50 mM NaCl, 2 mM MgCl₂, 1% Tergitol, 0.5% sodium deoxycholate, 0.1% sodium dodecyl sulfate with protease (Cat #B14002, Bimake), phosphatase (Cat #B15002, Bimake) inhibitor cocktails and 5 U/ml of universal nuclease (Cat #88702, Thermofisher) added extemporaneously. The concentration of lysates was measured by BCA (Cat #23227, Thermofisher) and peptide arrays were incubated with 1 mg/ml of total protein overnight at 4° C. (Yeh et al., J Neurosci. 37: 5648-5658, 2017; Yeh et al., Proc Natl Acad Sci USA. 116: 15696-15607, 2019; Moutal et al., Pain. 158: 2203-2221, 2017). Peptide arrays were washed 3 times for 5 minutes at RT with TBST and incubated with the primary antibody anti-VAPA (RRID AB_2722707; UC Davis/NIH NeuroMab Facility) for 2 hours at RT with gentle shaking in TBST, 5% BSA. After washing with TBST, the membranes were incubated in secondary antibody (IRDye® 800CW goat anti-mouse IgG secondary antibody; RRID AB_621842; Li-Cor) for 45 minutes, washed 3 times for 5 minutes in TBST, and visualized by infrared fluorescence (Li-Cor). Four independent peptide spot arrays were used in this study. Fluorescence intensity was analyzed with Image studio (Li-Cor).

For test [2], the target named is T2, Kv2.1 (endogenous, rat cortical neurons) (rat, UniProt P15387 1-857).
T2 construct: Endogenous channel in fixed, permeabilised primary cortical neurons of Sprague-Dawley rats, detected with a rabbit anti-Kv2.1 antibody; also called delayed-rectifying voltage-gated potassium channel Kv2.1
T2 sequence: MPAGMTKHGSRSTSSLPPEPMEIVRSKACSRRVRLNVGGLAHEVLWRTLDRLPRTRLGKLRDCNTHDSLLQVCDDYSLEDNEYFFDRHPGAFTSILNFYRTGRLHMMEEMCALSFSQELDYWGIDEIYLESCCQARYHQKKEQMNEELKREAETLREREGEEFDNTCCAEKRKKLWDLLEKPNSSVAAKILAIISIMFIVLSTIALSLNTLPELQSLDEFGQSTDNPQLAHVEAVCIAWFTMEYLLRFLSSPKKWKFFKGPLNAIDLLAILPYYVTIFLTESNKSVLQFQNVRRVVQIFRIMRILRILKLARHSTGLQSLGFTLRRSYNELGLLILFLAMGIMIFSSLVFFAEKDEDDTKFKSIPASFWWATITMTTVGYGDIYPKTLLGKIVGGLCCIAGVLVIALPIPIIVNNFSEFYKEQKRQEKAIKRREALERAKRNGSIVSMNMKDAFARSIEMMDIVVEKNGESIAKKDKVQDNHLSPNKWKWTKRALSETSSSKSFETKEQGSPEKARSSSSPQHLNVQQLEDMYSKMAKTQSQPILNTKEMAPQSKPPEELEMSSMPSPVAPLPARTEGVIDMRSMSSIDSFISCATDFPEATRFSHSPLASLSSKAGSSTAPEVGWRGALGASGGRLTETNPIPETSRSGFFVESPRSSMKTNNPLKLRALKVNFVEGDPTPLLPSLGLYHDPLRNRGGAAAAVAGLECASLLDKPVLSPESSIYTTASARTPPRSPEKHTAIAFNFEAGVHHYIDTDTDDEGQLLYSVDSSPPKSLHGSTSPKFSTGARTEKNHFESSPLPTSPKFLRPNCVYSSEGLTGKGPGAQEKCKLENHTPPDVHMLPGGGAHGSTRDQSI
In words: proximity ligation assay in fixed rat cortical neurons. As for the experimental part:
Duolink proximity ligation assay (PLA) technology (Sigma-Aldrich, St. Louis, Mo.) was utilized to assess in situ protein-protein interaction between Kv2.1 and vesicle-associated molecular protein (VAMP)-associated protein A (VAPA). Primary cortical neurons on glass coverslips were treated in 24-well plates with vehicle (dH₂O), TAT-Sc-2 (10 μM), or TAT-DP-2 (10 μM) for 2 hours at 37° C./5% CO₂. Neurons were then rinsed with 2 mL ice-cold sterile PBS and then transferred to 1 mL 4% paraformaldehyde (PFA) in PBS for 20 minutes to fix. Coverslips were transferred to 1 mL 0.1 M glycine (in PBS) to quench fixation and rinsed three times in 1 mL PBS. Membrane permeabilization was accomplished with 1 mL 0.25% Triton X-100 (Sigma-Aldrich, St. Louis, Mo.) and non-specific binding was blocked with 10% bovine serum albumin (in PBS) for 30 minutes. Primary immunolabeling was accomplished by 18-24 hour exposure to rabbit anti-Kv2.1 polyclonal antibody (1:500 in 3% BSA; RRID AB_2040162; Alomone Labs, Jerusalem, Israel), mouse anti-VAPA monoclonal antibody (1:500 in 3% BSA; RRID AB_2722702; UC Davis/NeuroMab Facility), and chicken anti-MAP2 polyclonal antibody (1:1000 in 3% BSA; RRID AB_5392; Abcam, Cambridge, Mass.) in 3% BSA (in PBS) at 4° C. under gentle agitation. […]

B1: DP-2 peptide (SIDSFTS) (peptide)
peptide: SIDSFTS
notes: Synthesised and spotted on Celluspots membrane through a polyethylene glycerol spacer (peptide spot array); also called declustering peptide 2
In the case of B1, the binding result in test [1] was “no binding (tested: lysate at 1 mg/ml of total protein)”.

Turning to SIDEFTS [Ser to Glu mutant of DP-2 (SIDEFTS)], the binding result in test [1] is “no binding (tested: lysate at 1 mg/ml of total protein)”.

Regarding EIDSFTS [Ser to Glu mutant of DP-2 (EIDSFTS)], in test [1], the binding result was “no binding (tested: lysate at 1 mg/ml of total protein)”.

SIDEFTE [Ser to Glu mutant of DP-2 (SIDEFTE)]: the binding result in test [1] was “no binding (tested: lysate at 1 mg/ml of total protein)”.

Turning to DIDSFTS [Ser to Asp mutant of DP-2 (DIDSFTS)], the binding result in test [1] was “no binding (tested: lysate at 1 mg/ml of total protein)”.

As to SIDSFTE [Ser to Glu mutant of DP-2 (SIDSFTE)], the binding result in test [1] was “no binding (tested: lysate at 1 mg/ml of total protein)”.

In the case of SIDDFTD [Ser to Asp mutant of DP-2 (SIDDFTD)], in test [1], the binding result is “no binding (tested: lysate at 1 mg/ml of total protein)”.

On to SIDDFTS [Ser to Asp mutant of DP-2 (SIDDFTS)], for which, in test [1], the binding result is on record as “no binding (tested: lysate at 1 mg/ml of total protein)”.

DIDDFTS [Ser to Asp mutant of DP-2 (DIDDFTS)]: the binding result in test [1] is reported as “no binding (tested: lysate at 1 mg/ml of total protein)”.

As to SIDSFTD [Ser to Asp mutant of DP-2 (SIDSFTD)], the binding result in test [1] was “no binding (tested: lysate at 1 mg/ml of total protein)”.

Regarding EIDEFTE [Ser to Glu mutant of DP-2 (EIDEFTE)], the binding result in test [1] is listed as “no binding (tested: lysate at 1 mg/ml of total protein)”.

Consider DIDDFTD [Ser to Asp mutant of DP-2 (DIDDFTD)], for which the binding result in test [1] is given as “no binding (tested: lysate at 1 mg/ml of total protein)”.

With EIDEFTS [Ser to Glu mutant of DP-2 (EIDEFTS)], the binding result in test [1] was “no binding (tested: lysate at 1 mg/ml of total protein)”.

With DIDSFTD [Ser to Asp mutant of DP-2 (DIDSFTD)], the binding result in test [1] was “no binding (tested: lysate at 1 mg/ml of total protein)”.

For EIDSFTE [Ser to Glu mutant of DP-2 (EIDSFTE)], the binding result in test [1] is on record as “no binding (tested: lysate at 1 mg/ml of total protein)”.

B2: non-canonical FFAT motif of Kv2.1 (SFISCAT) (peptide)
peptide: SFISCAT
notes: The text says it was tested on the peptide array
For the molecule B2, the binding result in test [1] is on record as “no binding (tested: lysate at 1 mg/ml of total protein)”.

Turning to SFTSCAT [non-canonical FFAT motif of Kv2.2 (SFTSCAT)], the binding result in test [1] is listed as “no binding (tested: lysate at 1 mg/ml of total protein)”.

B3: VAPA (endogenous, rat cortical neurons) (other, UniProt Q9Z270 2-249, looked up)
chain: ASASGAMAKHEQILVLDPPSDLKFKGPFTDVVTTNLKLQNPSDRKVCFKVKTTAPRRYCVRPNSGVIDPGSIVTVSVMLQPFDYDPNEKSKHKFMVQTIFAPPNISDMEAVWKEAKPDELMDSKLRCVFEMPNENDKLNDMEPSKAVPLNASKQDGPLPKPHSVSLNDTETRKLMEECKRLQGEMMKLSEENRHLRDEGLRLRKVAHSDKPGSTSAVSFRDNVTSPLPSLLVVIAAIFIGFFLGKFIL
notes: whole, on cells; Endogenous ER protein inside fixed, permeabilised neurons, detected with a mouse anti-VAPA antibody; also called VAMP-associated protein A
For the molecule B3, the binding result in test [2] is “binds”.
